This is an account of results in the nanobody polyreactivity screen of Harvey et al. (2022).

This series can be described thus: yeast display, Sf9 membrane polyspecificity reagent, FACS + sequencing; frameworks hold sequencing errors. In a few lines:
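Using colony PCR, genes from sorted yeast display clones were amplified, then sequenced on MiSeq at 2 × 250 and filtered by CDR length. The clones had been stained with 10% biotinylated, detergent-solubilized Sf9 membrane reagent for 1 hour at 4 °C and sorted by FACS into low and high (top ~1%) gates on anti-HA and streptavidin fluorescence. Polyreactivity labels come from the gate of origin.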
Turning to “QVQLVESGGGLVQAGGSLRLTCAASGSIFQRNAIGWYRQAPGKERELVAAITASGGRTYYADSVKGRFTISRDNAKNTVYLQMNSLKPEDTAVYYCAARGRTYCGGRTYDYWGHGTQVTVSS”, the “polyreactivity (PSR sort gate)” value was “high polyreactivity”.

“QVQLVESGGGLVQAGGSLRLTCAASGSIFRYYAMGWYRQAPGKERELVATISSGGRTYYADSVKGRFTISRDNAKNTVYLQMNSLKPEDTAVYYCAAVRLTWTAKYNYWGQGTQVTVSS”: the “polyreactivity (PSR sort gate)” value is listed as “high polyreactivity”.

In the case of “QVQLVESGGGLVQAGGSLRLTCAASGSIFTGYTMGWYRQAPGKERELVASISRRGGRTYYADSVKGRFTISRDNAKNTVYLQMNSLKPEDTAVYYCAVDRVPWRYQDSYNYWGQGTQVTVSS”, the “polyreactivity (PSR sort gate)” value is “high polyreactivity”.

“QVQLVESGGGLVQAGGSLRLTCAASGSIFYPYSMGRYRPAPGKERELVAAISSSGGSTYYADSVKGRFTISRDNAKNTVYLQMNSLKPEDTADYNCAARGKKHAYDYWGQGTQVTVSS”: the “polyreactivity (PSR sort gate)” value is reported as “low polyreactivity”.

For the sequence “QVQLVESGGGLVQAGGSLRLTCAASGSIFYVNAMGWYRQAPGKERELVAAISVRGGRTYYADSVKGRFTISRDNAKNTVYLQMNSLKPEDTAVYYCATRISTVGRYDYWGQGTQVTVSS”, the “polyreactivity (PSR sort gate)” value is given as “high polyreactivity”.

On to “QVQLVESGGGLVQAGGSLRLTCAASGSTFEVYAMGWYRQAPGKEREFVAAITVDGGSTYYADSVKGRFTISRDNAKNTVYLQMNSLKPEDTAVYYCAADSGSWEYYYWGQGTQVTVSS”, for which the “polyreactivity (PSR sort gate)” value is given as “low polyreactivity”.

For “QVQLVESGGGLVQAGGSLRLTCAASGSTFGYYAMGWNRQATGKERELVASITSDGSTNYADSVKGRFTISRDNAKNTVYLQMNSLKPEDTAVYYCAAYVWRYWHEYDYWGQGTQVTVSS”, the “polyreactivity (PSR sort gate)” value was “low polyreactivity”.

Regarding “QVQLVESGGGLVQAGGSLRLTCAASGSTFKSYAMGWYRQDPGKERELVAAITVSGGSTYYADSVKGRFTISRDNAKNTVYLMMNSLTPEDTSVYYCAADSVLLKDTGYDYWGQGTQVTVSS”, the “polyreactivity (PSR sort gate)” value is “low polyreactivity”.

Consider “QVQLVESGGGLVQAGGSLRLTCAASGSTFPVYAMGWSRQAPGKERELVASISSGADTIYADSVKGRFTISRDNAKNTVYLQMNSLKPEDTSVYYCAVYRPGLTYYDYDYWGQGTQVTVSS”, for which the “polyreactivity (PSR sort gate)” value is listed as “low polyreactivity”.

Turning to “QVQLVESGGGLVQAGGSLRLTCAASGSTFRENAMGWNRQAPGKERELVAAITSGGSTYYADSVKGRFTISRDNAKNTVYLQMNSLKPEDTAVYYGNADLEPYDYWGQGTQVTVSS”, the “polyreactivity (PSR sort gate)” value was “low polyreactivity”.

Take “QVQLVESGGGLVQAGGSLRLTCAASGSTFSYYAMGCYRQAPGKERELVAAISTRGSSTYYADSVKGRFTISRDNAKITVYVQMNSLKPEDTAVYYFAVDQYKYDCFYDYYGYTYGYWGQGTQVTVSS”: the “polyreactivity (PSR sort gate)” value is listed as “high polyreactivity”.

For “QVQLVESGGGLVQAGGSLRLTCAASGSTFVNYTMGWYRQAPGKERELVAAIRYRDGSTYYADSVKGRFTISRDNAKNTVYLQMNSLKPEDTAVYYCNTRITQVGDYIYDYWGQGTQVTVSS”, the “polyreactivity (PSR sort gate)” value was “low polyreactivity”.

Turning to “QVQLVESGGGLVQAGGSLRLTCAASGSTFVRYAMGWSRQAPGKERELVAAISRGGRTNYADSVKGRFTISRDNAKNTVYLQMNSLKPEDTAVYDCAKDRNIYYTYDYWGQGTQVTVSS”, the “polyreactivity (PSR sort gate)” value is “low polyreactivity”.

“QVQLVESGGGLVQAGGSLRLTCAASGSTFVWYAMGWSRQAPGKEREFVATISWSDGSTYYADSVKGRFTISRDNAKNTVYLQMNSLKPEDTAVYYCASDVDRFFTYKYDYWGQGTQVTVSS”: the “polyreactivity (PSR sort gate)” value is “low polyreactivity”.

As to “QVQLVESGGGLVQAGGSLRLTCAASGSTFYRYAMGWYRQAPGKERELVAAISTSGGRTYYADSVKGRFTISRDNAKNTVYLQMNSLKPEDTAVYYCAADQYRYYRSTYDYWGQGTQVTVSS”, the “polyreactivity (PSR sort gate)” value is recorded as “high polyreactivity”.

Regarding “QVQLVESGGGLVQAGGSLRLTCAASGSTFYVYAMGWYRQAPGKERELVAAIDDSGDRTYYADSVKGRFTISRDNAKNTVYLQMNSLKPEDTAVYYCAAEYDSWEYDYWGQGTQVTVSS”, the “polyreactivity (PSR sort gate)” value is “low polyreactivity”.
